Test results from article PMC10540216, “Activity Guided Azide-methyllysine Photo-trapping for Substrate Profiling of Lysine Demethylases” (Journal of the American Chemical Society, 2023).

B1: RBM33_HUMAN (protein, UniProt Q96EV2 2-1170, looked up)
RNA-binding protein 33: AAALGASGGAGAGDDDFDQFDKPGAERSWRRRAADEDWDSELEDDLLGEDLLSGKKNQSDLSDEELNDDLLQSDNEDEENFSSQGVTISLNATSGMVTSFELSDNTNDQSGEQESEYEQEQGEDELVYHKSDGSELYTQEYPEEGQYEGHEAELTEDQIEYVEEPEEEQLYTDEVLDIEINEPLDEFTGGMETLELQKDIKEESDEEEEDDEESGRLRFKTERKEGTIIRLSDVTRERRNIPETLELSAEAKAALLEFEERERQHKQGRYSSRRGGRRGGPLMCRGVGDQRRESTERGRMKDHRPALLPTQPPVVPQAPPPPPPPPQQQPIRSLFQPQPLQPLLPVQHPHHPSPPQGMHMPPQLETPRMMMTPPPVTPQQPKNIHINPHFKGTVVTPVQVPLLPVPSQPRPAVGPQRFPGPPEFPQHTPGPVPNSFSQPPRLPLQDQWRAPPPPQDRDPFFLGVSGEPRFPSHLFLEQRSPPPPPPPPTLLNSSHPVPTQSPLPFTQPGPAFNQQGQQPVFPRERPVRPALQPPGPVGILHFSQPGSATTRPFIPPRQPFLPGPGQPFLPTHTQPNLQGPLHPPLPPPHQPQPQQPQQQPPPQHQPPHQPPHQPPPQHQPPPQHPPQHPPQHQHHHHHHHLSVPPPPLMPMSQPQFRPHVQTAQPQASSSRMQCPQRQGLRHNTTSQNVSKRPMQQMQPTAPRNSNLRELPIAPSHVIEMSSSRCSATPSAQVKPIVSASPPSRAVAGSRSSQGKTEVKVKPASPVAQPKEEAKTETEFPDEDEETRLYRLKIEEQKRLREEILKQKELRRQQQAGARKKELLERLAQQQQQLYAPPPPAEQEEQALSPSPTNGNPLLPFPGAQVRQNVKNRLLVKNQDVSISNVQPKTSNFVPSSANMQYQGQQMKALKHLRQTRTVPQSQTQPLHKVLPIKPADVEEPAVPQTPRVASIQGRPQDTKPGVKRTVTHRTNSGGGDGPHISSKVRVIKLSGGGGESDGFFHPEGQPQRLPQPPEVGPQPARKVTLTRGGLQQPPHLPAGPHAHSPVPPGIKSIQGIHPAKKAIMHGRGRGVAGPMGRGRLMPNKQNLRVVECKPQPCVVSVEGLSSSTTDAQLKSLLMSVGPIQSLQMLPQQRKAIAKFKEPAHALAFQQKFHRHMIDLSHINVALIVE
B2: SMC3_HUMAN (protein, UniProt Q9UQE7 1-1217, looked up)
Structural maintenance of …: MYIKQVIIQGFRSYRDQTIVDPFSSKHNVIVGRNGSGKSNFFYAIQFVLSDEFSHLRPEQRLALLHEGTGPRVISAFVEIIFDNSDNRLPIDKEEVSLRRVIGAKKDQYFLDKKMVTKNDVMNLLESAGFSRSNPYYIVKQGKINQMATAPDSQRLKLLREVAGTRVYDERKEESISLMKETEGKREKINELLKYIEERLHTLEEEKEELAQYQKWDKMRRALEYTIYNQELNETRAKLDELSAKRETSGEKSRQLRDAQQDARDKMEDIERQVRELKTKISAMKEEKEQLSAERQEQIKQRTKLELKAKDLQDELAGNSEQRKRLLKERQKLLEKIEEKQKELAETEPKFNSVKEKEERGIARLAQATQERTDLYAKQGRGSQFTSKEERDKWIKKELKSLDQAINDKKRQIAAIHKDLEDTEANKEKNLEQYNKLDQDLNEVKARVEELDRKYYEVKNKKDELQSERNYLWREENAEQQALAAKREDLEKKQQLLRAATGKAILNGIDSINKVLDHFRRKGINQHVQNGYHGIVMNNFECEPAFYTCVEVTAGNRLFYHIVDSDEVSTKILMEFNKMNLPGEVTFLPLNKLDVRDTAYPETNDAIPMISKLRYNPRFDKAFKHVFGKTLICRSMEVSTQLARAFTMDCITLEGDQVSHRGALTGGYYDTRKSRLELQKDVRKAEEELGELEAKLNENLRRNIERINNEIDQLMNQMQQIETQQRKFKASRDSILSEMKMLKEKRQQSEKTFMPKQRSLQSLEASLHAMESTRESLKAELGTDLLSQLSLEDQKRVDALNDEIRQLQQENRQLLNERIKLEGIITRVETYLNENLRKRLDQVEQELNELRETEGGTVLTATTSELEAINKRVKDTMARSEDLDNSIDKTEAGIKELQKSMERWKNMEKEHMDAINHDTKELEKMTNRQGMLLKKKEECMKKIRELGSLPQEAFEKYQTLSLKQLFRKLEQCNTELKKYSHVNKKALDQFVNFSEQKEKLIKRQEELDRGYKSIMELMNVLELRKYEAIQLTFKQVSKNFSEVFQKLVPGGKATLVMKKGDVEGSQSQDEGEGSGESERGSGSQSSVPSVDQFTGVGIRVSFTGKQGEMREMQQLSGGQKSLVALALIFAIQKCDPAPFYLFDEIDQALDAQHRKAVSDMIMELAVHAQFITTTFRPELLESADKFYGVKFRNKVSHIDVITAEMAKDFVEDDTTHG
B3: SF3B2_HUMAN (protein, UniProt Q13435 1-895, looked up)
Splicing factor 3B subunit 2: MATEHPEPPKAELQLPPPPPPGHYGAWAAQELQAKLAEIGAPIQGNREELVERLQSYTRQTGIVLNRPVLRGEDGDKAAPPPMSAQLPGIPMPPPPLGLPPLQPPPPPPPPPPGLGLGFPMAHPPNLGPPPPLRVGEPVALSEEERLKLAQQQAALLMQQEERAKQQGDHSLKEHELLEQQKRAAVLLEQERQQEIAKMGTPVPRPPQDMGQIGVRTPLGPRVAAPVGPVGPTPTVLPMGAPVPRPRGPPPPPGDENREMDDPSVGPKIPQALEKILQLKESRQEEMNSQQEEEEMETDARSSLGQSASETEEDTVSVSKKEKNRKRRNRKKKKKPQRVRGVSSESSGDREKDSTRSRGSDSPAADVEIEYVTEEPEIYEPNFIFFKRIFEAFKLTDDVKKEKEKEPEKLDKLENSAAPKKKGFEEEHKDSDDDSSDDEQEKKPEAPKLSKKKLRRMNRFTVAELKQLVARPDVVEMHDVTAQDPKLLVHLKATRNSVPVPRHWCFKRKYLQGKRGIEKPPFELPDFIKRTGIQEMREALQEKEEQKTMKSKMREKVRPKMGKIDIDYQKLHDAFFKWQTKPKLTIHGDLYYEGKEFETRLKEKKPGDLSDELRISLGMPVGPNAHKVPPPWLIAMQRYGPPPSYPNLKIPGLNSPIPESCSFGYHAGGWGKPPVDETGKPLYGDVFGTNAAEFQTKTEEEEIDRTPWGELEPSDEESSEEEEEEESDEDKPDETGFITPADSGLITPGGFSSVPAGMETPELIELRKKKIEEAMDGSETPQLFTVLPEKRTATVGGAMMGSTHIYDMSTVMSRKGPAPELQGVEVALAPEELELDPMAMTQKYEEHVREQQAQVEKEDFSDMVAEHAAKQKQKKRKAQPQDSRGGSKKYKEFKF
B4: ATX2L_HUMAN (protein, UniProt Q8WWM7 1-1075, looked up)
Ataxin-2-like protein: MLKPQPLQQPSQPQQPPPTQQAVARRPPGGTSPPNGGLPGPLATSAAPPGPPAAASPCLGPVAAAGSGLRRGAEGILAPQPPPPQQHQERPGAAAIGSARGQSTGKGPPQSPVFEGVYNNSRMLHFLTAVVGSTCDVKVKNGTTYEGIFKTLSSKFELAVDAVHRKASEPAGGPRREDIVDTMVFKPSDVMLVHFRNVDFNYATKDKFTDSAIAMNSKVNGEHKEKVLQRWEGGDSNSDDYDLESDMSNGWDPNEMFKFNEENYGVKTTYDSSLSSYTVPLEKDNSEEFRQRELRAAQLAREIESSPQYRLRIAMENDDGRTEEEKHSAVQRQGSGRESPSLASREGKYIPLPQRVREGPRGGVRCSSSRGGRPGLSSLPPRGPHHLDNSSPGPGSEARGINGGPSRMSPKAQRPLRGAKTLSSPSNRPSGETSVPPPPAVGRMYPPRSPKSAAPAPISASCPEPPIGSAVPTSSASIPVTSSVSDPGVGSISPASPKISLAPTDVKELSTKEPGRTLEPQELARIAGKVPGLQNEQKRFQLEELRKFGAQFKLQPSSSPENSLDPFPPRILKEEPKGKEKEVDGLLTSEPMGSPVSSKTESVSDKEDKPPLAPSGGTEGPEQPPPPCPSQTGSPPVGLIKGEDKDEGPVAEQVKKSTLNPNAKEFNPTKPLLSVNKSTSTPTSPGPRTHSTPSIPVLTAGQSGLYSPQYISYIPQIHMGPAVQAPQMYPYPVSNSVPGQQGKYRGAKGSLPPQRSDQHQPASAPPMMQAAAAAGPPLVAATPYSSYIPYNPQQFPGQPAMMQPMAHYPSQPVFAPMLQSNPRMLTSGSHPQAIVSSSTPQYPSAEQPTPQALYATVHQSYPHHATQLHAHQPQPATTPTGSQPQSQHAAPSPVQHQAGQAPHLGSGQPQQNLYHPGALTGTPPSLPPGPSAQSPQSSFPQPAAVYAIHHQQLPHGFTNMAHVTQAHVQTGITAAPPPHPGAPHPPQVMLLHPPQSHGGPPQGAVPQSGVPALSASTPSPYPYIGHPQGEQPGQAPGFPGGADDRIREFSLAGGIWHGRAEGLQVGQDARVLGGE
B5: AMOT_HUMAN (protein, UniProt Q4VCS5 1-1084, looked up)
Angiomotin: MRNSEEQPSGGTTVLQRLLQEQLRYGNPSENRSLLAIHQQATGNGPPFPSGSGNPGPQSDVLSPQDHHQQLVAHAARQEPQGQEIQSENLIMEKQLSPRMQNNEELPTYEEAKVQSQYFRGQQHASVGAAFYVTGVTNQKMRTEGRPSVQRLNPGKMHQDEGLRDLKQGHVRSLSERLMQMSLATSGVKAHPPVTSAPLSPPQPNDLYKNPTSSSEFYKAQGPLPNQHSLKGMEHRGPPPEYPFKGMPPQSVVCKPQEPGHFYSEHRLNQPGRTEGQLMRYQHPPEYGAARPAQDISLPLSARNSQPHSPTSSLTSGGSLPLLQSPPSTRLSPARHPLVPNQGDHSAHLPRPQQHFLPNQAHQGDHYRLSQPGLSQQQQQQQQQHHHHHHHQQQQQQQPQQQPGEAYSAMPRAQPSSASYQPVPADPFAIVSRAQQMVEILSDENRNLRQELEGCYEKVARLQKVETEIQRVSEAYENLVKSSSKREALEKAMRNKLEGEIRRMHDFNRDLRERLETANKQLAEKEYEGSEDTRKTISQLFAKNKESQREKEKLEAELATARSTNEDQRRHIEIRDQALSNAQAKVVKLEEELKKKQVYVDKVEKMQQALVQLQAACEKREQLEHRLRTRLERELESLRIQQRQGNCQPTNVSEYNAAALMELLREKEERILALEADMTKWEQKYLEENVMRHFALDAAATVAAQRDTTVISHSPNTSYDTALEARIQKEEEEILMANKRCLDMEGRIKTLHAQIIEKDAMIKVLQQRSRKEPSKTEQLSCMRPAKSLMSISNAGSGLLSHSSTLTGSPIMEEKRDDKSWKGSLGILLGGDYRAEYVPSTPSPVPPSTPLLSAHSKTGSRDCSTQTERGTESNKTAAVAPISVPAPVAAAATAAAITATAATITTTMVAAAPVAVAAAAAPAAAAAPSPATAAATAAAVSPAAAGQIPAAASVASAAAVAPSAAAAAAVQVAPAAPAPVPAPALVPVPAPAAAQASAPAQTQAPTSAPAVAPTPAPTPTPAVAQAEVPASPATGPGPHRLSIPSLTCNPDKTDGPVFHSNTLERKTPIQILGQEPDAEMVEYLI
B6: KRT85_HUMAN (protein, UniProt P78386 1-507, looked up)
Keratin, type II cuticular Hb5: MSCRSYRISSGCGVTRNFSSCSAVAPKTGNRCCISAAPYRGVSCYRGLTGFGSRSLCNLGSCGPRIAVGGFRAGSCGRSFGYRSGGVCGPSPPCITTVSVNESLLTPLNLEIDPNAQCVKQEEKEQIKSLNSRFAAFIDKVRFLEQQNKLLETKWQFYQNQRCCESNLEPLFSGYIETLRREAECVEADSGRLASELNHVQEVLEGYKKKYEEEVALRATAENEFVVLKKDVDCAYLRKSDLEANVEALVEESSFLRRLYEEEIRVLQAHISDTSVIVKMDNSRDLNMDCIIAEIKAQYDDVASRSRAEAESWYRSKCEEMKATVIRHGETLRRTKEEINELNRMIQRLTAEIENAKCQRAKLEAAVAEAEQQGEAALSDARCKLAELEGALQKAKQDMACLLKEYQEVMNSKLGLDIEIATYRRLLEGEEHRLCEGVGSVNVCVSSSRGGVSCGGLSYSTTPGRQITSGPSAIGGSITVVAPDSCAPCQPRSSSFSCGSSRSVRFA

Test system: KDM4A-I71AzF
Assay: CASI: photo-crosslinking with HEK293T cell extracts, StrepTactin enrichment and LC-MS/MS proteomics;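 further: lysates from HEK293T cells pretreated with a KDM4 inhibitor to raise proteome methylation, affinity-purified after ±UV, gel-resolved, trypsin-digested, with exclusive unique peptides per protein averaged per condition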
Format: binding, human
Conditions: sheet "Final results but with 0.01"

| Molecule | Fold change (+UV/-UV) |
| --- | --- |
| B1 | 0.3333 |
| B2 | 0.375 |
| B3 | 0.7273 |
| B4 | 0 |
| B5 | 1.125 |
| B6 | 3 |
